Columns and labels:
[1] = molecular target: 43S·mRNA preinitiation complex assembled with eIF5-G31R (yeast) (UniProt P32911); assay: fluorescence polarisation; dissociation kinetics by fluorescence anisotropy, 43S·mRNA(AUG) complexes: 15 nM eIF1A-Fl, 1 μM eIF1, 1 μM eIF5 variant, 120 nM 40S, 10 μM mRNA(AUG), 300 nM eIF2, 150 nM Met-tRNAi, 1 mM GDPNP·Mg2+; chase with 15 μM unlabeled eIF1A; 30 mM HEPES pH 7.4, 100 mM potassium acetate, 3 mM Mg(OAc)2, 2 mM DTT; double exponential fit (k1 fast phase, open state; k2 slow phase, closed state)
[2] = molecular target: 43S·mRNA preinitiation complex assembled with eIF5-G31R,G62S (yeast) (UniProt P32911); assay: as above
[3] = molecular target: 43S·mRNA preinitiation complex assembled with WT eIF5 (40S subunits, eIF1, eIF5, eIF2·GDPNP·Met-tRNAi ternary complex, model mRNA) (yeast) (UniProt P32911); assay: as above
[4] = molecular target: 43S·mRNA preinitiation complex assembled with eIF5-G31R,M18V (yeast) (UniProt P32911); assay: as above
[5] = molecular target: 43S·mRNA preinitiation complex assembled with eIF5-M18V (yeast) (UniProt P32911); assay: as above
[6] = molecular target: 43S·mRNA preinitiation complex assembled with eIF5-G62S (yeast) (UniProt P32911); assay: as above
[7] = molecular target: 43S·mRNA preinitiation complex assembled with eIF5-G31R (yeast) (UniProt P32911); assay: fluorescence polarisation; dissociation kinetics by fluorescence anisotropy, 43S·mRNA(UUG) complexes: 15 nM eIF1A-Fl, 1 μM eIF1, 1 μM eIF5 variant, 120 nM 40S, 10 μM mRNA(UUG), 300 nM eIF2, 150 nM Met-tRNAi, 1 mM GDPNP·Mg2+; chase with 15 μM unlabeled eIF1A; 30 mM HEPES pH 7.4, 100 mM potassium acetate, 3 mM Mg(OAc)2, 2 mM DTT; double exponential fit (k1 fast phase, open state; k2 slow phase, closed state)
[8] = molecular target: 43S·mRNA preinitiation complex assembled with eIF5-G31R,G62S (yeast) (UniProt P32911); assay: as above
[9] = molecular target: 43S·mRNA preinitiation complex assembled with WT eIF5 (40S subunits, eIF1, eIF5, eIF2·GDPNP·Met-tRNAi ternary complex, model mRNA) (yeast) (UniProt P32911); assay: as above
[10] = molecular target: 43S·mRNA preinitiation complex assembled with eIF5-G31R,M18V (yeast) (UniProt P32911); assay: as above
[11] = molecular target: 43S·mRNA preinitiation complex assembled with eIF5-M18V (yeast) (UniProt P32911); assay: as above
[12] = molecular target: 43S·mRNA preinitiation complex assembled with eIF5-G62S (yeast) (UniProt P32911); assay: as above

- k1 (dissociation rate constant, fast phase, open state) [1]: 0.016 s⁻¹
- k2 (dissociation rate constant, slow phase, closed state) [1]: 0.005 s⁻¹
- k1 (dissociation rate constant, fast phase, open state) [2]: 0.018 s⁻¹
- k2 (dissociation rate constant, slow phase, closed state) [2]: 0.003 s⁻¹
- k1 (dissociation rate constant, fast phase, open state) [3]: 0.007 s⁻¹
- k2 (dissociation rate constant, slow phase, closed state) [3]: 0.0004 s⁻¹
- k1 (dissociation rate constant, fast phase, open state) [4]: 0.025 s⁻¹
- k2 (dissociation rate constant, slow phase, closed state) [4]: 0.002 s⁻¹
- k1 (dissociation rate constant, fast phase, open state) [5]: 0.003 s⁻¹
- k2 (dissociation rate constant, slow phase, closed state) [5]: 0.0003 s⁻¹
- k1 (dissociation rate constant, fast phase, open state) [6]: 0.018 s⁻¹
- k2 (dissociation rate constant, slow phase, closed state) [6]: 0.003 s⁻¹
- k1 (dissociation rate constant, fast phase, open state) [7]: 0.008 s⁻¹
- k2 (dissociation rate constant, slow phase, closed state) [7]: 0.0005 s⁻¹
- k1 (dissociation rate constant, fast phase, open state) [8]: 0.026 s⁻¹
- k2 (dissociation rate constant, slow phase, closed state) [8]: 0.004 s⁻¹
- k1 (dissociation rate constant, fast phase, open state) [9]: 0.011 s⁻¹
- k2 (dissociation rate constant, slow phase, closed state) [9]: 0.0011 s⁻¹
- k1 (dissociation rate constant, fast phase, open state) [10]: 0.018 s⁻¹
- k2 (dissociation rate constant, slow phase, closed state) [10]: 0.0003 s⁻¹
- k1 (dissociation rate constant, fast phase, open state) [11]: 0.011 s⁻¹
- k2 (dissociation rate constant, slow phase, closed state) [11]: 0.0012 s⁻¹
- k1 (dissociation rate constant, fast phase, open state) [12]: 0.025 s⁻¹
- k2 (dissociation rate constant, slow phase, closed state) [12]: 0.002 s⁻¹
Substance: eIF1A labeled at its C-terminus with fluorescein (from UniProt P38912 1-153) (natural protein)
